The text below walks through data of paper PMC9887155, “Kinetics of cone specific G-protein signaling in avian photoreceptor cells” (Frontiers in Molecular Neuroscience, 2023).

Where “and” joins values, the source holds several entries; their conditions need not be identical. Equal entries are not always repeated. Where two headings read alike, the source gives them in different places. Ends that are not written are not given here.

Assay [1] concerns the target Gtα/Giα chimera (α-subunit of the cone specific heterotrimeric G protein of European robin, chimera with Giα) (European robin (Erithacus rubecula)). Put plainly: SPR; kinetics: Gtα/Giα immobilised on CM5 (2.6–3.4 ng/mm^2); LWO2 injected at 5 to 150 nM in random order; global fit, Langmuir 1:1 model; apparent KD from kd/ka; 12 sets; same running buffer. A general note: Surface plasmon resonance follows binding to a sensor surface in real time, without labels.

The target of assay [2] is Gtα/Giα with a C-terminus truncated by six amino acids (European robin (Erithacus rubecula)). Put plainly: SPR; Gt-3AA or Gt-6AA immobilised on CM5 (3.1–4.2 ng/mm^2); LWO2 injected at 120 nM (Gt-3AA) or 100 nM (Gt-6AA); global fit, Langmuir 1:1 model; apparent KD; three sets each.
The target of assay [3] is Gtα/Giα with a C-terminus truncated by three amino acids (European robin (Erithacus rubecula)). Described as above.
Assay [4] addresses Gtα/Giα with a C-terminus truncated by six amino acids (European robin (Erithacus rubecula)). The description is as above. The source holds these as a separate data set.
Assay [5] has as its target Gtα/Giα with a C-terminus truncated by three amino acids (European robin (Erithacus rubecula)). The assay is described as above. This is another data set of the same source.
Assay [6] concerns the target Gtα/Giα chimera (α-subunit of the cone specific heterotrimeric G protein of European robin, chimera with Giα) (European robin (Erithacus rubecula)). Put plainly: FRET or BRET; in solution: intrinsic Trp (excitation 280 nm) to dansyl on the peptide, emission 400–550 nm; peptide and Gtα/Giα each 16.7 μM; 80 mM Hepes pH 7.4, 40 mM KCl, 150 mM NaCl, 10 mM MgCl2, 10 μM GDP; 30 min on ice. (In general: In BRET a luciferase serves as donor, and the signal depends on an acceptor being close.)

With CGAGAWERWFVVCKPFGNIKFDGK-NH2 (cysteine pairing not given here) [peptide LWO2 (second cytoplasmic loop of long-wavelength-sensitive opsin of European robin)], the Kd is 15.1 nM and 21.4 nM and 3 to 41 nM in assay [1]; 50 nM in assay [2]; 8.7 nM in assay [3]; 34.5 nM in assay [4]; 7.3 nM in assay [5]. The koff – broadly, a measure of how fast the partners let go of each other – in assay [1] worked out at 0.000812 s⁻¹; in assay [2], 0.00093 s⁻¹; in assay [3], 0.000937 s⁻¹. The results for the kon in assay [1], in assay [2] and in assay [3] were 53600 M⁻¹ s⁻¹, 18600 M⁻¹ s⁻¹ and 108000 M⁻¹ s⁻¹, respectively.
As for CGAGAWERWFVVCKPFGNIKFDGK-NH2 (cysteine pairing not given here; also: dansyl coupled to free amino groups) [dansylated peptide LWO2], the decrease of dansyl fluorescence emission (FRET) on adding Gtα/Giα (relative fluorescence counts) in assay [6] is 14000.
